Experiment [1] deals with cynomolgus LAMP1 expressed at the cell surface of recombinant HCT116. Briefly: FACS on recombinant HCT116 stable clones expressing cynomolgus LAMP1. In kind it is binding, cynomolgus monkey. The conditions noted are these: HCT116 stable clone. The procedure:
(§1) HCT116 cells were infected by a lentiviral vector allowing stable integration of the human or the cynomolgus LAMP1 CDS in genomic DNA of cells. Individual clones with different densities of human or cynomolgus LAMP1 cell surface localization were derived from a pool of HCT116 infected cells. […] 100 μL/well of goat anti-human IgG conjugated with Alexa488 (Invitrogen; #A11013) was added for 1 h at 4° C. and washed two times with PBS 1% BSA. The antibody binding was evaluated after centrifugation and resuspension of cells in 100 μl fixing solution (paraformaldehyde at 4% in PBS). Samples were read using Galaxy® Flow Cytometry System (Partec). EC50 values were estimated using BIOST@T-SPEED software.
(§2) 100 μL/well of goat anti-mouse IgG conjugated with Alexa647 (Invitrogen; #A2135) was added for 45 min at 4° C. and washed three times with PBS 1% BSA. The antibody binding was evaluated after centrifugation and re-suspension of cells by adding 200 μl/well PBS 1% BSA and read using Guava® easyCyte™ 8HT Flow Cytometry System. EC50 values were estimated using BIOST@T-SPEED software.

Experiment [2] concerns the target T1, human LAMP1 expressed at the cell surface of recombinant HCT116 (HCT116 huLAMP1 clone 8) (Homo sapiens, UniProt P11279).
T1 construct: full length human and cynomolgus monkey LAMP1 expressed at the cell surface of a recombinant cell line, wherein the cell line may be HCT116; expressed in transfected cells
T1 sequence (P11279 29-417): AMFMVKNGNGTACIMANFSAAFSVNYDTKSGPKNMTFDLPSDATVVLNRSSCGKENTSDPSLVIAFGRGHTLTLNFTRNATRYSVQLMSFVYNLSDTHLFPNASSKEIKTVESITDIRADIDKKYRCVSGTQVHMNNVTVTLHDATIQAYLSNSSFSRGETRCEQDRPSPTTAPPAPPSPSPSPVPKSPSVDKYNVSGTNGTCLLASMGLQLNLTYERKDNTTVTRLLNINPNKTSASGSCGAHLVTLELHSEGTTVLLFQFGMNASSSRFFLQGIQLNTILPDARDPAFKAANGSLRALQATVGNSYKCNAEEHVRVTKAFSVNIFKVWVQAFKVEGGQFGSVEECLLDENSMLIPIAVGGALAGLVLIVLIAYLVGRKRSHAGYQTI
Briefly: FACS on recombinant HCT116 stable clones expressing human LAMP1. In kind it is binding. As for the experimental part:
as §1, §2
HCT116 stable clone was obtained as described above. […]
DM4-SPDB-huMAb1_1 was assessed by flow cytometry for its ability to bind to human LAMP1 or cynomolgus LAMP1 proteins expressed respectively at the surface of HCT116 or HEK293 stable clones, both obtained as described in the protocol of example 4.7. […]

This note sets out measurements from patent US9809653B2, “Anti-LAMP1 antibodies and antibody drug conjugates, and uses thereof” (SANOFI, priority 2012, dated 2017).

Chain of cynomolgus LAMP1 expressed at the cell surface of recombinant HCT116 (as listed by the source): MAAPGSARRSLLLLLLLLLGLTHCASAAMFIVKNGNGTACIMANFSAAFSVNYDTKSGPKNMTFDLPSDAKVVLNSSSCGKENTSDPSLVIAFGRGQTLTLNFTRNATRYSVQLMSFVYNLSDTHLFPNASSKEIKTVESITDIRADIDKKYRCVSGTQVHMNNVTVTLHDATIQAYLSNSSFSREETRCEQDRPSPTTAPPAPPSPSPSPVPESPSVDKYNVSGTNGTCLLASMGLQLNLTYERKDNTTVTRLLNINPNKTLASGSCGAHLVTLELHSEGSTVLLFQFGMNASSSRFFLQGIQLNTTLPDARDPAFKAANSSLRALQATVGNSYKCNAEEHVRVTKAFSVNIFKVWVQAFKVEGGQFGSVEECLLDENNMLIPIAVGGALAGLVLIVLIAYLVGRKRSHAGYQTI

B1: MAb2: murine monoclonal anti-LAMP1 antibody, VH SEQ ID NO: 8, VL SEQ ID NO: 12 (antibody, V domains shown)
VH: QVQLQQSAAELARPGASVKMSCKASGYTFTSYTMHWVKQRPGQGLEWIGYFNPSSGYPEYNQKFKDKTTLTADKSSNTAFIQLNSLTSEDSAVYYCSRGYYYGSRGYALDFWGQGASVTVSS
VL: NIVLTQSPVSLAVSLGQRATISCRASESVDINGNTFMHWYQQKPGQSPKLVIYAASNIESGVPARFSGSGSSTDFTFTIDPVEADDVATYYCQQNIEDPWTFGGGTKVEIK
modifications: antibod fragment; antibody fragment
In the case of B1, the EC50 (as a rule, the concentration giving half of the maximal effect) in experiment [1] was found to be 6.6 nM; in experiment [2], 6.3 nM.

B2: MAb1: murine monoclonal anti-LAMP1 antibody, VH SEQ ID NO: 1, VL SEQ ID NO: 5 (antibody, V domains shown)
VH: QVQLQQSGAELVKPGASVKMSCKASGYIFTNYNIHWVKKSPGQGLEWIGAIYPGNGDAPYSQKFKDKATLTADKSSSTTYMQLSRLTSEDSAVYYCVRANWDVAFAYWGQGTLVSVSA
VL: DIQMTQSPPSLSASLGGKVTITCKASQDIDRYMAWYQDKPGKGPRLLIHDTSTLQPGIPSRFSGSGSGRDYSFSISNLEPEDIATYYCLQYDNLWTFGGGTKLEIK
modifications: Antibody Fragment; antibody fragment
For the molecule B2, the EC50 in experiment [1] was found to be 5.5 nM; in experiment [2], 4.9 nM.
